Source: publication doi:10.1101/2025.06.04.657969, “Complex rheology of condensin in entangled DNA”

Tests used:
[1] = molecular target: T1, condensin hinge (Smc2/Smc4 hinge heterodimer) (Saccharomyces cerevisiae, UniProt P38989;Q12267 396-792;555-951); experiment: EMSA; 10 nM DNA; 5 mM MgCl2; Fig. 2c legend gives 0.2-0.3 uM and a 25 bp oligo; EMSA: 50 mM Tris-HCl pH 7.5, 50 mM KCl, 125 mM NaCl, 5 mM MgCl2, 5% glycerol, 1 mM DTT, 10 min on ice, gel at 4 C; FP: 25 mM Tris-HCl pH 7.5, 100 mM NaCl, 5 mM; settings: protein: recombinant; tags: N-terminal His6-TEV on Smc2; Smc4 untagged; copies: 1;1; label: 5' 6-FAM on strand 1; blunt
T1 sequence 1: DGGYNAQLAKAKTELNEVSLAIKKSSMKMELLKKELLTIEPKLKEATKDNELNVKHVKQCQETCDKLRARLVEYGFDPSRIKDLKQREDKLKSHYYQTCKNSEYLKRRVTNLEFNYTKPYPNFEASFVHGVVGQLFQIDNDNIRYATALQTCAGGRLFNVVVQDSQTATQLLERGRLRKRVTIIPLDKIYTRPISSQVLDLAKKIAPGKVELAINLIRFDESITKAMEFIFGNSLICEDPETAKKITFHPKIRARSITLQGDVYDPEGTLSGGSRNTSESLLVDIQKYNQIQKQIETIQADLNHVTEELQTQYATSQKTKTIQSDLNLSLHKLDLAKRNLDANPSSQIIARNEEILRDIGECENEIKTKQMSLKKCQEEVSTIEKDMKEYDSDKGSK
T1 sequence 2: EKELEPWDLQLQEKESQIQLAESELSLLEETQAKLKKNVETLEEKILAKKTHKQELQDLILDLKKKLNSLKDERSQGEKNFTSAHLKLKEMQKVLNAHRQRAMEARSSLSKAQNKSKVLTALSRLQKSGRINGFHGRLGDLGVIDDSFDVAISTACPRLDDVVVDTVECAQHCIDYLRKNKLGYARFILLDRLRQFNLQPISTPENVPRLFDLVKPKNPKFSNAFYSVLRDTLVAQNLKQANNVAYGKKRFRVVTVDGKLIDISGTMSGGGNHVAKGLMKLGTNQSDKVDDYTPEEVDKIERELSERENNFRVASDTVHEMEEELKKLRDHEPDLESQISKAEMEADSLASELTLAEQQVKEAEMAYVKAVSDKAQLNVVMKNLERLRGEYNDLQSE

[2] = molecular target: T1, condensin hinge (Smc2/Smc4 hinge …); experiment: fluorescence polarization; 20 nM DNA; 5 mM MgCl2; EMSA: 50 mM Tris-HCl pH 7.5, 50 mM KCl, 125 mM NaCl, 5 mM MgCl2, 5% glycerol, 1 mM DTT, 10 min on ice, gel at 4 C; FP: 25 mM Tris-HCl pH 7.5, 100 mM NaCl, 5 mM; settings: protein: recombinant; tags: N-terminal His6-TEV on Smc2; Smc4 untagged; copies: 1;1; label: 5' 6-FAM on strand 1; blunt

B1: 6-FAM 50-bp dsDNA (dsDNA)
DNA 1: GGATACGTAACAACGCTTATGCATCGCCGCCGCTACATCCCTGAGCTGAC
DNA 2: GTCAGCTCAGGGATGTAGCGGCGGCGATGCATAAGCGTTGTTACGTATCC
- Kd [1]: ~141 nM
- Kd [2]: ~700 nM
